According to publication PMC4610412:

Tests used:
[1] = molecular target: FFpSPR; assay: NMR titration; conditions: phospho-S3 of peptide
[2] = molecular target: trans-locked inhibitor; assay: NMR titration; conditions: phospho-S3, trans-locked alkene isostere
[3] = molecular target: pCdc25C (Homo sapiens); assay: NMR titration; conditions: phospho-T5 of peptide (pT48)
[4] = molecular target: pCdc25C (Homo sapiens); assay: ITC; conditions: phospho-T5 of peptide (pT48)

| Binder | Kd [1] [µM] | Kd [2] [µM] | Kd [3] [µM] | Kd [4] [µM] |
| --- | --- | --- | --- | --- |
| ADEEKLPPGWEKRMSRSSGRVYYFNHITNASQWERPSGNSS [Pin1 (WW domain site, full-length Pin1) WW, Q13526] | 43 | 53 | 6 | – |
| ADEEKLPPGWEKRMSRSSGRVYYFNHITNASQWERPSGNSS [Pin1 WW domain (isolated) WW, Q13526] | – | – | – | 13 |
